Measurements published in publication PMC4231051.
Positions count from the first letter of the chain named. In names and notes the source's numbering stands.

B1: BglA (β-glucosidase A) (Paenibacillus polymyxa; T231K) (protein)
chain: TIFQFPQDFMWGTATAAYQIEGAYQEDGRGLSIWDTFAHTPGKVFNGDNGNVACDSYHRYEEDIRLMKELGIRTYRFSVSWPRIFPNGDGEVNQEGLDYYHRVVDLLNDNGIEPFCTLYHWDLPQALQDAGGWGNRRTIQAFVQFAETMFREFHGKIQHWLTFNEPWCIAFLSNMLGVHAPGLTNLQTAIDVGHHLLVAHGLSVRRFRELGTSGQIGIAPNVSWAVPYSKSEEDKAACARTISLHSDWFLQPIYQGSYPQFLVDWFAEQGATVPIQDGDMDIIGEPIDMIGINYYSMSVNRFNPEAGFLQSEEINMGLPVTDIGWPVESRGLYEVLHYLQKYGNIDIYITENGACINDEVVNGKVQDDRRISYMQQHLVQVHRTIHDGLHVKGYMAWSLLDNFEWAEGYNMRFGMIHVDFRTQVRTPKESYYWYRNVVSNNWLETRR
B2: BglA (β-glucosidase A) (Paenibacillus polymyxa) (protein)
chain: B1 chain with K230T
B3: BglA (β-glucosidase A) (Paenibacillus polymyxa; E96R) (protein)
chain: B1 chain with E95R, K230T
B4: BglA (β-glucosidase A) (Paenibacillus polymyxa; E96K) (protein)
chain: B1 chain with E95K, K230T
B5: BglA (β-glucosidase A) (Paenibacillus polymyxa; Q216R) (protein)
chain: B1 chain with Q215R, K230T

Substrate: O=[N+]([O-])c1ccc(O[C@@H]2O[C@H](CO)[C@@H](O)[C@H](O)[C@H]2O)cc1
Experiment: purified protein
Conditions: 50 mM citrate phosphate buffer, pH 7.0, 37 °C, 5.5 min, 0.02-3 mM pNPG

Protein	Km	kcat	kcat/Km
B1	0.61 ± 0.07 mM	36.3 s⁻¹	59300 M⁻¹ s⁻¹
B2	1.21 ± 0.03 mM	44.7 s⁻¹	36900 M⁻¹ s⁻¹
B3	0.47 ± 0.02 mM	21.2 s⁻¹	44800 M⁻¹ s⁻¹
B4	0.19 ± 0.01 mM	28.4 s⁻¹	149000 M⁻¹ s⁻¹
B5	0.46 ± 0.00 mM	26 s⁻¹	56900 M⁻¹ s⁻¹
